# “And” between values parts separate entries of the source, which are not always exact repeats. Equal values may be shown once.
# Assays:
# SR-BI = test: SR-BI-mediated cholesterol uptake in Fu5AH hepatoma cells; format: cell-based, rat; details: 2 h pretreatment of Fu5AH cells; uptake from CS-6253 or apo A-I nHDL
# Method: J774 cells were labeled for 24h with ^3[H]-cholesterol (Perkin Elmer, Norwalk, Connecticut) in medium containing 1% FBS. Unlabeled rat Fu5AH hepatoma cells that express high levels of SR-BI, were prepared as described previously. Fu5AH were first seeded on 24-well plate at a density of 2x10^5 cells/well in DMEM plus 10% FBS. SR-BI mediated cholesterol uptake is determined as previously reported. The nHDL particles were generated in media cell culture after 6h incubation of cAMP stimulated J774 cells with increased molar concentrations relative to native apo A-I of lipid free CS-6253 (0, 0.018, 0.071, 0.179, 0.357, 0.536, 0.714, and 1.071 μM). […] The total of ^3H-label present in the lipid extract from cells (% cpm) was quantified by liquid scintillation, and plotted as cell-associated radioactivity as described by Yancey et al.. The contribution of SR-BI to the influx of HDL cholesterol (HDL-C) was assessed by a 2h pretreatment of Fu5AH cells with blocker of lipid transport-1 (BLT-1) to inhibit any transport of cholesterol from HDL to the cells via SR-BI [31]. […]
# Fig 10 Uptake of cholesterol to hepatic cells expressing SR-BI from plasma containing HDL-CS-6253 or HDL-apo A-I. A. Fu5AH liver hepatoma cells expression of SR-BI transporter ability. […] Protein concentration was determined by standard assay (Bio-Rad). […]
# LCAT = LCAT activity (fractional esterification rate) in human plasma; format: biochemical; details: 2 mM DTNB, 1 h, 37°C
# Method: Supplementary file pone.0131997.s011.tif: S10 Fig Dynamics of esterification of nascent […]-6253 particles were labelled with cell derived ^3[H]cholesterol and incubated with a normolipidemic plasma at a ratio of (1μg peptide: 10μg plasma apo A-I). LCAT activity was determined after incubation for 1h at 37°C in the presence or absence of 2 mM DTNB. After lipid extraction, ^3[H]cholesterol (unesterified) and ^3[H]CE from plasma were separated by TLC and assayed for radioactivity as described in the online-only Supplementary appendix, S1 Appendix. LCAT activity was measured as CE divided by cholesterol/h. Results are mean (±SD) of triplicate experiments. *P<0.05. (TIF) Click here for additional data file. The fractional cholesterol esterification rate (FER) of LCAT activity was assayed with standard methodology (1,2). […] Cholesterol labeled nHDL particles, Lp-CS-6253 or […] plasma apo A-I), are incubated in total plasma pooled from healthy control subjects for 1h at 37 °C (3). This ratio is selected based on the assumption that the in vivo nascent HDL pool represented ∼10% of total plasma apoA-I mass (4). […] Cellular lipids were extracted and ^3[H]cholesterol and ^3[H]cholesteryl esters (CE) were separated by TLC. The lipids ^3[H]free cholesterol and ^3[H]CE were located by exposure to iodine vapor, and were scraped into liquid scintillating vials and assayed for radioactivity. […]
# [1] = biological target: ABCA1 (human, expressed in BHK cells) (human) (UniProt O95477); test: cross-linking; intact mifepristone-stimulated BHK-ABCA1 cells in the presence of apo A-I or CS-6253 (0.96 μM), cross-linked or not with 500 μM DSP; lysis with 0.5% n-dodecylmaltoside; SDS-PAGE (4–22.5%), anti-ABCA1 blot; no DTT
# [2] = tested on: HDL subpopulations in human plasma; test: HDL subpopulation remodelling (preβ-1 HDL formation) in human plasma, 2D-PAGGE; details: 10 μg lipid free apoA-I: 1 μg plasma apoA-I, 37°C
# Method: Apo A-I and CS-6253-containing particles were separated according to charge (agarose, horizontal axis) and size (polyacrylamide gradient, 3% to 20% gel, vertical axis) as previously described. Apo A-I-containing particles were detected by incubating the membranes with immunopurified polyclonal anti-apo A-I antibody (Biodesign). The nHDL-CS-6253 containing particles were detected with immunopurified polyclonal anti-CS-6253 antibody (Biosynthesis Inc., Lewisville, TX). The anti-CS-6253 is a purified rabbit IgG polyclonal antibody specifically produced by Biosynthesis Inc. It is. Cross reactivity of this antibody was verified by Nondenaturing gradient gel electrophoresis (ND-PAGGE) 5% to 35% [24]. The anti-CS-6253 antibody recognizes only CS-6253 peptide in plasma; neither apo A-I nor apo E were detected by this antibody after separation by gradient gel electrophoresis respectively (Fig 1A, 1B and 1C). […]
# Fig 8 Time dependent effects of incubation of lipid free CS-6253 with human plasma, on HDL subparticles. […] HDL subpopulations were detected by an anti-apo A-I antibody. […] HDL subfractions were detected by an antibody against CS-6253. […]
# Fig 9 Time dependent effects of incubation of lipid free CS-6253 with human plasma, on HDL subparticles. […] Samples were separated by 2D-PAGGE, and ^125I-apoA-I was detected by autoradiography. […]
# ABCA1 = ABCA1 (Homo sapiens, UniProt O95477); test: ABCA1-mediated cholesterol efflux from BHK-ABCA1 cells, acceptor in media; format: cell-based; parameters: expressed in transfected cells; host or cells: BHK cells, stably transfected, induced with 10 nM mifepristone (gift of J. F. Oram); details: BHK-ABCA1 induced with mifepristone, 4 h, 37°C, mean ± SD
# Source text: BHK cells stably transfected with an ABCA1 or ABCG1 expression vector that is mifepristone inducible and cells transfected with the same vector lacking the ABCA1 cDNA insert (mutant or mock-transfected) were generously provided by the late Dr. John F. Oram from the Department of Medicine, University of Washington, and were characterized and cultured as previously described. […] Mouse-derived peritoneal macrophages J774 were purchased from American Tissue Culture Collection (ATCC TIB-67, Cederlane, Burlington, Canada). For induction of ABCA1, BHK cells were incubated for 18–20 h with 10 nM mifepristone. J774 macrophages were stimulated with 0.3 mM Cpt-cAMP 8-(4-Chlorophenylthio)-cyclic adenosine monophosphate (Sigma). All BHK and J774 macrophages cells were respectively grown and maintained in DMEM and RPMI containing 10% fetal serum until experimental treatment. Studies were carried out on standard 24-well plates (150,000 cells/well) unless stated otherwise
# We investigated cholesterol efflux from BHK cells after adding lipid free CS-6253 to media cell culture or to human EDTA-plasma which had been stored at -80°C. BHK overexpressing human ABCA1 were labeled with 2 μCi/ml ^3H-free cholesterol (Perkin Elmer, Norwalk, Connecticut) for 24 h. Afterward, BHK-ABCA1 were stimulated with 10 nmol/l mifepristone for 18–20 h (13). Cells were incubated with various doses of acceptor in media for 4 h at 37°C. Alternatively, plasma samples were first pre-incubated for 5 min at 37°C in plasma at mole ratios (10:1 or 1:1 relative to plasma apo A-I). To obtain the HDL fraction, apoB lipoproteins were precipitated from plasma by polyethylene glycol (PEG). […]
# Fig 2 Effect of CS-6253 treatment on cholesterol efflux. […] Cholesterol efflux from either ABCA1 cells or control cells to apo A-I (closed circles), and CS-6253 (closed triangles) was determined at the indicated time points. […] ABCA1 was detected from THP-1 foam cells lysis at 4°C with lysis buffer containing 0.5% n-dodecylmaltoside in the presence of a protease inhibitor mixture followed by low speed centrifugation to remove cell debris. Protein concentration was determined by standard assay (Bio-Rad). […] After electrophoresis, ABCA1 was detected by an anti-ABCA1 antibody. […] E. Quantification of FC and CE in foam cells after interaction with CS-6253 and apoA-I. After a period of 4h cholesterol efflux, THP-1 foam cell lipids were extracted with hexane: isopropanol (3v/2v) as under ‘‘Material and Methods’. 3[H]-FC and 3[H]-CE were separated by TLC and located by exposure to iodine vapor, and were scraped off into liquid scintillating vials and assayed for radioactivity. […]
# ABCA1, sequence (O95477 whole entry): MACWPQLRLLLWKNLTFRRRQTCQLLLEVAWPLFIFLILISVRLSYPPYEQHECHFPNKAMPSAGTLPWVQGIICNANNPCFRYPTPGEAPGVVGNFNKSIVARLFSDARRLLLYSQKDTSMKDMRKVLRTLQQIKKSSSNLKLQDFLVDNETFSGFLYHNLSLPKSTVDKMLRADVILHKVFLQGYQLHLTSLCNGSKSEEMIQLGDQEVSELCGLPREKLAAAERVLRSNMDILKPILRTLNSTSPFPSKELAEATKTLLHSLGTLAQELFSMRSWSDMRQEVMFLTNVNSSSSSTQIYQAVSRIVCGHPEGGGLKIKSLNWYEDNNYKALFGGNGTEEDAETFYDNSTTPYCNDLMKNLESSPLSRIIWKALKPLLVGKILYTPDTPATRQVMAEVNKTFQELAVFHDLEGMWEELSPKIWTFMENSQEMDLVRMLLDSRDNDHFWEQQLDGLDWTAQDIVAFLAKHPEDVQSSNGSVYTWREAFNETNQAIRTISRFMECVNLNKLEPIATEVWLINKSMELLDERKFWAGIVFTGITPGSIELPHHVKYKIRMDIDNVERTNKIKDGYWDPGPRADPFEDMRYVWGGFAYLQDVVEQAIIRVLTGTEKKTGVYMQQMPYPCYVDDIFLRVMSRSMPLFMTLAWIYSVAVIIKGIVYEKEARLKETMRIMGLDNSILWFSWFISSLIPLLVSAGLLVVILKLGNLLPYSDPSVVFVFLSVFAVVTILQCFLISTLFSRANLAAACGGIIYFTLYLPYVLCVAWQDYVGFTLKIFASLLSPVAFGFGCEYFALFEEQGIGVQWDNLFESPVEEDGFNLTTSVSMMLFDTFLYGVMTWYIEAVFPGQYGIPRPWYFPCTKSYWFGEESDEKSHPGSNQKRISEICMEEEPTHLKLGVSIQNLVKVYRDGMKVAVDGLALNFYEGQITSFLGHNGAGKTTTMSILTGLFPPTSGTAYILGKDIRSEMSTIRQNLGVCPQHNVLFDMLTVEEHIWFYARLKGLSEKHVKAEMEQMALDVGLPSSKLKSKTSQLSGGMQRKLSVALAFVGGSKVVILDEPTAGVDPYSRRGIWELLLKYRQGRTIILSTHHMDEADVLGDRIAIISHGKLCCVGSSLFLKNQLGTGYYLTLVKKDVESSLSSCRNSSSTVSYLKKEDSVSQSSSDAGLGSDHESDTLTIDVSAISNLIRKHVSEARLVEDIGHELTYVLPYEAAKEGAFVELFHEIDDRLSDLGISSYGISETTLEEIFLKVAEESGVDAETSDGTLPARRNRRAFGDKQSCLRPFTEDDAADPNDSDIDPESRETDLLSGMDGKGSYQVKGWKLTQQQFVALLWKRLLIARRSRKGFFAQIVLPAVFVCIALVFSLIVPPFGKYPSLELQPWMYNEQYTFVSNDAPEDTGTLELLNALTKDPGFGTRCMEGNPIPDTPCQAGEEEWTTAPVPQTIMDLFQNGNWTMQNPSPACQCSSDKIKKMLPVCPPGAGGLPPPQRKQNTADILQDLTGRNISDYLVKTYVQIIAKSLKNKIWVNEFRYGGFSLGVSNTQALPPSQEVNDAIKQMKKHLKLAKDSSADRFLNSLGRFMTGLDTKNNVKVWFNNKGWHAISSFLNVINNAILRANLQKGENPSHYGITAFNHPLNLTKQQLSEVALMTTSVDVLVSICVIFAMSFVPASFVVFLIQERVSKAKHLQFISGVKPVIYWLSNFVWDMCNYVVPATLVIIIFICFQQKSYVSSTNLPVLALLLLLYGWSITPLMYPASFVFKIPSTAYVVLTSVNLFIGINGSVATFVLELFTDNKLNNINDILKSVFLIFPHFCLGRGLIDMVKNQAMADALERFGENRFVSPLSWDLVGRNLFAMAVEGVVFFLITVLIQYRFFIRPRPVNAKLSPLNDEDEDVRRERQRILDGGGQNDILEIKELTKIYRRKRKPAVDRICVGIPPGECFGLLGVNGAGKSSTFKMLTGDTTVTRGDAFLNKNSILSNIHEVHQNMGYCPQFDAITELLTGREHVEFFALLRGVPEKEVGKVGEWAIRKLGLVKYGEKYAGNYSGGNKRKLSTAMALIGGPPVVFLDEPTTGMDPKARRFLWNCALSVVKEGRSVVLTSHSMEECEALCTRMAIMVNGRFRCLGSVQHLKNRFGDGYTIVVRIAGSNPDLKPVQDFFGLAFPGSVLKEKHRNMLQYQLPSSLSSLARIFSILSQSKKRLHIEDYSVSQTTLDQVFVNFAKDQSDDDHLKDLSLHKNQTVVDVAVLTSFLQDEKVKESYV
compound,measurement,setting,value
CCCCCCC1CCCC1=NNC(N)=S (stereo not drawn) [BLT-1],effect on cholesterol uptake (in words),SR-BI,inhibited uptake of cholesterol from CS-6253 or apo A-I nHDL
"O=C(O)c1cc(SSc2ccc([N+](=O)[O-])c(C(=O)O)c2)ccc1[N+](=O)[O-] [DTNB, 5,5′-Dithiobis(2-nitrobenzoic acid)]",inhibition of LCAT,LCAT,98.37 ± 0.08%
"ABCA1 (human, expressed in BHK cells), O95477 1-2261",ratio of ABCA1 dimer: monomer (cells with CS-6253),[1],56.5%
same,ratio of ABCA1 dimer: monomer (cells with apo A-I),[1],69.2%
same,stoichiometry N,[1],2
^125I-lipid free apoA-I: apo A-I iodinated with 125I by Iodo-Gen,"increase in preβ-1 particles, 5 min (125I-apoA-I control)",[2]; 5 min,0.23 fold
same,"increase in preβ-1 particles, 2 h (125I-apoA-I control)",[2]; 2 h,0.4 fold
apolipoprotein E [apo E],"Km, cholesterol efflux",ABCA1,10.30±2.84 μg/ml and 0.21±0.05 μM
same,"Vmax, cholesterol efflux",ABCA1,11.45±1.16 % efflux/4h
